Literature values in article PMC4741438, “Targeting the SIN3A-PF1 interaction inhibits epithelial to mesenchymal transition and maintenance of a stem cell phenotype in triple negative breast cancer” (Oncotarget, 2015).

System: PAH2
Settings: in comparison to MAD
Source text: The PAH2 domain of SIN3 mediates interactions with a restricted subset of factors containing a conserved SIN3 interaction domain (SID) with homology to amino acids 5-24 of the prototypic PAH2-binding protein, the transcriptional repressor MAD [19-22]. […] Therefore, the use of small molecules based on in silico modeling of the MAD-SID sequence to prevent recruitment of the PF1-containing complexes represents a new and potentially clinically effective therapeutic strategy. While it cannot be ruled out that the effects of SID treatment act through inhibiting the interaction of additional PAH2-binding proteins with SIN3, the finding that PF1 kn ...

B1: PF1: plant homeodomain (PHD)-containing protein PF1 (PHF12) (protein)
chain: MWEKMETKTIVYDLDTSGGLMEQIQALLAPPKTDEAEKRSRKPEKEPRRSGRATNHDSCDSCKEGGDLLCCDHCPAAFHLQCCNPPLSEEMLPPGEWMCHRCTVRRKKREQKKELGHVNGLVDKSGKRTTSPSSDTDLLDRSASKTELKAIAHARILERRASRPGTPTSSASTETPTSEQNDVDEDIIDVDEEPVAAEPDYVQPQLRRPFELLIAAAMERNPTQFQLPNELTCTTALPGSSKRRRKEETTGKNVKKTQHELDHNGLVPLPVKVCFTCNRSCRVAPLIQCDYCPLLFHMDCLEPPLTAMPLGRWMCPNHIEHVVLNQKNMTLSNRCQVFDRFQDTVSQHVVKVDFLNRIHKKHPPNRRVLQSVKRRSLKVPDAIKSQYQFPPPLIAPAAIRDGELICNGIPEESQMHLLNSEHLATQAEQQEWLCSVVALQCSILKHLSAKQMPSHWDSEQTEKADIKPVIVTDSSVTTSLQTADKTPTPSHYPLSCPSGISTQNSLSCSPPHQSPALEDIGCSSCAEKSKKTPCGTANGPVNTEVKANGPHLYSSPTDSTDPRRLPGANTPLPGLSHRQGWPRPLTPPAAGGLQNHTVGIIVKTENATGPSSCPQRSLVPVPSLPPSIPSSCASIENTSTLQRKTVQSQIGPPLTDSRPLGSPPNATRVLTPPQAAGDGILATTANQRFSSPAPSSDGKVSPGTLSIGSALTVPSFPANSTAMVDLTNSLRAFMDVNGEIEINMLDEKLIKFLALQRIHQLFPSRVQPSPGSVGTHQLASGGHHIEVQRKEVQARAVFYPLLGLGGAVNMCYRTLYIGTGADMDVCLTNYGHCNYVSGKHACIFYDENTKHYELLNYSEHGTTVDNVLYSCDFSEKTPPTPPSSIVAKVQSVIRRRRHQKQDEEPSEEAAMMSSQAQGPQRRPCNCKASSSSLIGGSGAGWEGTALLHHGSYIKLGCLQFVFSITEFATKQPKGDASLLQDGVLAEKLSLKPHQGPVLRSNSVP
- affinity for PAH2, fold lower than MAD: 10 fold
